# B1: F5: human recombinant TCR-like Fab clone specific for HLA-A2/pp65 495-503; heavy chain SEQ ID NO:20, light chain SEQ ID NO:22 (antibody)
# heavy: QVQLQESGPGLVKPSETLSLTCTVSGGSISSSNYYWGWIRQPPGKGLEWIGAIYYSGSTYYNPSLKSRVAISVDTSKNQFSLKLSSVTAADTAVYYCARRIGVAGQWYFDLWGRGTLVTVSSASTKGPSVFPLAPSSKSTSGGTAALGCLVKDYFPEPVTVSWNSGALTSGVHTFPAVLQSSGLYSLSSVVTVPSSSLGTQTYICNVNHKPSNTKVDKKVEPKSC
# light: LNFMLTQPHSVSGSPGKTVTISCTRSTGSITSNYVHWYQQRPGSSPTTVICEDNERPSGVPDRFSGSIDISSNSASLTISGLKTEDEADYYCQSYDDSNHISVFGTGTKVTVLGQPKANPCLISDFYPGAVTVAWKADGSPVKAGVETTKPSKQSNNKYAASSYLSLTPEQWKSHRSYSCQVTHEGSTVEKTVAPAECS
# modifications: F5 Fab heavy chain polypeptide sequence; F5 Fab light chain polypeptide sequence
# What was measured:
# [1] = test system: HLA-A2/pp65 complex (pp65 495-503 peptide); experiment: ELISA with phage clones and purified Fab Abs, specific complex; type: binding, human; conditions: soluble purified Fab
# Description: ELISA with phage clones and purified Fab Abs—The binding specificities of individual phage clones and soluble Fab were determined by ELISA using biotinylated scMHC-peptide complexes. ELISA plates (Falcon) were coated overnight with BSA-biotin (1 μg/well). After having been washed, the plates were incubated (1 hour, RT) with streptavidin (1 μg/well), washed extensively, and further incubated (1 hour, RT) with 0.5 μg of MHC/peptide complexes. The plates were blocked for 30 minutes at RT with PBS/2% skim milk and subsequently were incubated for 1 hour at RT with phage clones (˜10^9 phages/well) or various concentrations of soluble purified Fab. […]
# A large human Fab library containing 3.7×10^10 different Fab clones was used for the selection on biotinylatd HLA-A2/pp65 complexes (De Haard H J., et al., 1999). […] Specificity of the selected phage antibodies against the complex was analyzed by a differential ELISA assay in which binding was tested against specific (pp65 495-503 peptide; SEQ ID NO:3) and non specific (gp100 280-288 peptide; SEQ ID NO:4) biotinylated HLA-A2/peptide complexes. […]
# To determine the correct folding of the bound complexes and their stability during the binding assays, the ability of the complexes to react with the conformation-specific mAb, w6/32, that recognizes HLA complexes only when folded correctly and when containing peptide was monitored.
# [2] = target: T1, pp65-loaded RMA-S-HHD cells (UniProt P06725+P61769); experiment: Flow cytometry on peptide-loaded RMA-S-HHD cells; type: cell-based, murine; conditions: Fab, control: EBV derived peptide
# T1 construct: expressed in transfected cells; host or cells: murine TAP2-deficient RMA-S cells (RMA-S-HHD)
# Description: Flow cytometry—The B cell line RMAS-HHD, which is transfected with a single-chain β2m-HLA-A2 gene, the EBV-transformed HLA-A2^+ JY cells, and the HLA-A2− B cell line APD-70 were used to determine the reactivity of the recombinant Fab Abs with cell surface-expressed HLA-A2/peptide complexes. Peptide pulsing was performed as indicated: 10^6 cells were washed twice with serum-free RPMI and incubated overnight at 26° C. or 37° C., respectively, in medium containing 1-50 μM of the peptide. The RMAS-HHD cells were subsequently incubated at 37° C. for 2-3 hours to stabilize cell surface expression of MHC-peptide complexes.
# Cells were incubated for 60 minutes at 4° C. with recombinant Fab Abs (10 μg/ml) in 100 μl PBS. After one wash, the cells were incubated with 1 μg anti-human Fab (Jackson ImmunoResearch) for another 60 minutes at 4° C. After three washes, the cells were resuspended in ice-cold PBS. The cells were analyzed by a FACStar flow cytometer (BD Biosciences, San Jose, Calif.).
# The pp65495-503 peptide and control peptides were loaded on RMA-S-HHD cells and the ability of the selected Fab Abs to bind to peptide-loaded cells was monitored by flow cytometry.
molecule,measurement,setting,value
B1,binding to the specific HLA-A2/pp65 complex,[1],Specificity towards HLA-A2/pp65 complex
same,reactivity with peptide-loaded RMA-S-HHD cells,[2],reacted only with pp65-loaded RMA-S-HHD cells

# From patent US8361473B2, “Antibodies and their uses for diagnosis and treatment of cytomegalovirus infection and associated diseases” (priority 2007, dated 2013)
